In patent US20180086804A1 (COMMISSARIAT A L ENERGIE ATOMIQUE ET AUX ENERGIES …, published 2018):
Read-outs that look alike come from different tables or passages of the source. No end group written: not given here.

Tests used:
[1] = target: T1, HLA-DP402 (HLA-DPB1*04:02) (human, UniProt P20036 29-222); test: competition ELISA vs biotin-Oxy 271-287
T1 construct: mature; purified from homozygous EBV-transformed lymphoblastoid cells with antibody B7/21

[2] = target: T2, HLA-DR15 (HLA-DRB1*15:01) (human); test: competition ELISA vs biotin-A3 152-166
T2 construct: mature; purified from homozygous EBV-transformed lymphoblastoid cells with antibody L243

[3] = target: T3, HLA-DR7 (HLA-DRB1*07:01) (human); test: competition ELISA vs biotin-YKL
T3 construct: mature; purified from homozygous EBV-transformed lymphoblastoid cells with antibody L243

[4] = target: T4, HLA-DR1 (HLA-DRB1*01:01) (human); test: competition ELISA vs biotin-HA 306-318;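 note: HLA and competitor incubated 24 to 72 h, maximal signal taken from wells lacking competitor, background from wells lacking HLA molecule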
T4 construct: mature; class II HLA molecule purified from homozygous EBV-transformed lymphoblastoid cells with antibody L243

[5] = target: T5, HLA-DRB4 (HLA-DRB4*01:01) (human); test: competition ELISA vs biotin-E2/E168
T5 construct: mature; purified from homozygous EBV-transformed lymphoblastoid cells with antibody L243

[6] = target: T6, HLA-DR4 (HLA-DRB1*04:01) (human); test: competition ELISA vs biotin-HA 306-318;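 note: HLA and competitor incubated 24 to 72 h, maximal signal taken from wells lacking competitor, background from wells lacking HLA molecule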
T6 construct: mature; purified from homozygous EBV-transformed lymphoblastoid cells with antibody L243

[7] = target: T7, HLA-DR11 (HLA-DRB1*11:01) (human); test: competition ELISA vs biotin-HA 306-318;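 note: HLA and competitor incubated 24 to 72 h, maximal signal taken from wells lacking competitor, background from wells lacking HLA molecule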
T7 construct: mature; purified from homozygous EBV-transformed lymphoblastoid cells with antibody L243

[8] = target: T8, HLA-DRB5 (HLA-DRB5*01:01) (human); test: competition ELISA vs biotin-HA 306-318;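 note: HLA and competitor incubated 24 to 72 h, maximal signal taken from wells lacking competitor, background from wells lacking HLA molecule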
T8 construct: mature; purified from homozygous EBV-transformed lymphoblastoid cells with antibody L243

[9] = target: T4, HLA-DR1 (HLA-DRB1*01:01); test: competition ELISA vs biotin-HA 306-318; remark: listed apart in the source
[10] = target: T7, HLA-DR11 (HLA-DRB1*11:01); test: competition ELISA vs biotin-HA 306-318; remark: listed apart in the source
[11] = target: T9, HLA-DR13 (HLA-DRB1*13:01) (human); test: competition ELISA vs biotin-B1 21-36
T9 construct: mature; purified from homozygous EBV-transformed lymphoblastoid cells with antibody L243

[12] = target: T3, HLA-DR7 (HLA-DRB1*07:01); test: competition ELISA vs biotin-YKL; remark: listed apart in the source
[13] = target: T2, HLA-DR15 (HLA-DRB1*15:01); test: competition ELISA vs biotin-A3 152-166; remark: listed apart in the source
[14] = target: T8, HLA-DRB5 (HLA-DRB5*01:01); test: competition ELISA vs biotin-HA 306-318; remark: listed apart in the source
[15] = target: T6, HLA-DR4 (HLA-DRB1*04:01); test: competition ELISA vs biotin-HA 306-318; remark: listed apart in the source
[16] = target: T4, HLA-DR1 (HLA-DRB1*01:01); test: competition ELISA vs biotin-HA 306-318; remark: listed apart in the source
[17] = target: T7, HLA-DR11 (HLA-DRB1*11:01); test: competition ELISA vs biotin-HA 306-318; remark: listed apart in the source
[18] = target: T3, HLA-DR7 (HLA-DRB1*07:01); test: competition ELISA vs biotin-YKL; remark: listed apart in the source
[19] = target: T5, HLA-DRB4 (HLA-DRB4*01:01); test: competition ELISA vs biotin-E2/E168; remark: listed apart in the source
[20] = target: T10, HLA-DR3 (HLA-DRB1*03:01) (human); test: competition ELISA vs biotin-MT 2-16
T10 construct: mature; purified from homozygous EBV-transformed lymphoblastoid cells with antibody L243

[21] = target: T11, HLA-DP401 (HLA-DPB1*04:01) (human, UniProt P20036 29-222); test: competition ELISA vs biotin-Oxy 271-287
T11 construct: mature; purified from homozygous EBV-transformed lymphoblastoid cells with antibody B7/21

[22] = target: T1, HLA-DP402 (HLA-DPB1*04:02); test: competition ELISA vs biotin-Oxy 271-287; remark: listed apart in the source
[23] = target: T12, HLA-DRB3 (HLA-DRB3*01:01) (human); test: competition ELISA vs biotin-LOL 191-210
T12 construct: mature; purified from homozygous EBV-transformed lymphoblastoid cells with antibody L243

[24] = target: T2, HLA-DR15 (HLA-DRB1*15:01); test: competition ELISA vs biotin-A3 152-166; remark: listed apart in the source
[25] = target: T6, HLA-DR4 (HLA-DRB1*04:01); test: competition ELISA vs biotin-HA 306-318; remark: listed apart in the source
[26] = target: T10, HLA-DR3 (HLA-DRB1*03:01); test: competition ELISA vs biotin-MT 2-16; remark: listed apart in the source
[27] = target: T8, HLA-DRB5 (HLA-DRB5*01:01); test: competition ELISA vs biotin-HA 306-318; remark: listed apart in the source
[28] = target: T11, HLA-DP401 (HLA-DPB1*04:01); test: competition ELISA vs biotin-Oxy 271-287; remark: listed apart in the source
[29] = target: T9, HLA-DR13 (HLA-DRB1*13:01); test: competition ELISA vs biotin-B1 21-36; remark: listed apart in the source
[30] = target: T10, HLA-DR3 (HLA-DRB1*03:01); test: competition ELISA vs biotin-MT 2-16; remark: listed apart in the source
[31] = target: T9, HLA-DR13 (HLA-DRB1*13:01); test: competition ELISA vs biotin-B1 21-36; remark: listed apart in the source

## HFPPSQIAAGAFCLA-NH2 [CCNB1 338-352]
[1]
  relative affinity: 188
[2]
  relative affinity: 257
[3]
  relative affinity: 1400
[4]
  relative affinity: 598

## PMLVPVPVSEPVPEP-NH2 [CCNB1 87-101]
[2]
  relative affinity: 134
[5]
  relative affinity: 748
[3]
  relative affinity: 231
[6]
  relative affinity: 96
[4]
  relative affinity: 1500

## NCVPKKMLQLVGVTA-NH2 [CCNB1 237-251]
[2]
  relative affinity: 65
[5]
  relative affinity: 1400
[4]
  relative affinity: 4
[7]
  relative affinity: 87

## VDVEQHTLAKYLMEL-NH2 [CCNB1 315-329]
[8]
  relative affinity: 224
[9]
  relative affinity: 2450
[10]
  relative affinity: 632
[11]
  relative affinity: 211
[12]
  relative affinity: 6
[13]
  relative affinity: 7

## RAILIDWLVQVQMKF-NH2 [CCNB1 202-216]
[14]
  relative affinity: 55
[15]
  relative affinity: 59
[16]
  relative affinity: 1220
[17]
  relative affinity: 400
[18]
  relative affinity: 9
[19]
  relative affinity: 20
[20]
  relative affinity: 1
[21]
  relative affinity: 47
[22]
  relative affinity: 14
[23]
  relative affinity: 2
[24]
  relative affinity: 4

## LPVMQHLAKNVVMVN-NH2 [CCNB1 377-391]
[8]
  relative affinity: 4080
[25]
  relative affinity: 373
[9]
  relative affinity: 894
[10]
  relative affinity: 3
[11]
  relative affinity: 2
[12]
  relative affinity: 13

## FRLLQETMYMTVSII-NH2 [CCNB1 216-230]
[14]
  relative affinity: 50
[15]
  relative affinity: 2
[16]
  relative affinity: 7
[17]
  relative affinity: 14
[18]
  relative affinity: 0.5
[19]
  relative affinity: 22
[20]
  relative affinity: 1
[21]
  relative affinity: 2
[22]
  relative affinity: 1
[23]
  relative affinity: 11
[24]
  relative affinity: 3

## PTLQHYLSYTEESLL-NH2 [CCNB1 363-377]
[14]
  relative affinity: 24
[15]
  relative affinity: 76
[16]
  relative affinity: 28
[17]
  relative affinity: 45
[18]
  relative affinity: 1
[19]
  relative affinity: 5
[20]
  relative affinity: 1
[21]
  relative affinity: 22
[22]
  relative affinity: 50
[23]
  relative affinity: 11
[24]
  relative affinity: 1

## AKINMAGAKRVPTAP-NH2 [CCNB1 17-31]
[8]
  relative affinity: 11
[9]
  relative affinity: 5
[10]
  relative affinity: 2
[11]
  relative affinity: 21
[26]
  relative affinity: 833
[12]
  relative affinity: 3
[13]
  relative affinity: 120

## LALKILDNGEWTPTL-NH2 [CCNB1 351-365]
[1]
  relative affinity: 510
[2]
  relative affinity: 52
[3]
  relative affinity: 624
[27]
  relative affinity: 3060
[6]
  relative affinity: 1000
[4]
  relative affinity: 648
[7]
  relative affinity: 2330

## H-KNVVMVNQGLTKHMT-NH2 (not fully specified) [CCNB1 385-399]
[28]
  relative affinity: 116
[1]
  relative affinity: 2
[2]
  relative affinity: 0.02
[29]
  relative affinity: 37
[30]
  relative affinity: 228
[27]
  relative affinity: 52
[6]
  relative affinity: 986
[4]
  relative affinity: 4500
[7]
  relative affinity: 766

## SEYVKDIYAYLRQLE-NH2 [CCNB1 168-182]
[14]
  relative affinity: 3
[16]
  relative affinity: 22
[17]
  relative affinity: 3
[18]
  relative affinity: 346
[20]
  relative affinity: 97
[22]
  relative affinity: 127
[31]
  relative affinity: 12
[23]
  relative affinity: 30
[24]
  relative affinity: 12

## MTVSIIDRFMQNNCV-NH2 [CCNB1 225-239]
[14]
  relative affinity: 79
[15]
  relative affinity: 100
[16]
  relative affinity: 24
[17]
  relative affinity: 31
[18]
  relative affinity: 5
[19]
  relative affinity: 6
[20]
  relative affinity: 1
[21]
  relative affinity: 72
[22]
  relative affinity: 35
[23]
  relative affinity: 9
[24]
  relative affinity: 2

## MALRVTRNSKINAEN-NH2 [CCNB1 1-15]
[8]
  relative affinity: 374
[25]
  relative affinity: 46
[9]
  relative affinity: 100
[10]
  relative affinity: 22
[11]
  relative affinity: 58
[12]
  relative affinity: 2
[13]
  relative affinity: 5

## MELTMLDYDMVHFPP-NH2 [CCNB1 327-341]
[28]
  relative affinity: 2
[1]
  relative affinity: 47
[2]
  relative affinity: 10
[5]
  relative affinity: 139
[30]
  relative affinity: 32
[6]
  relative affinity: 22
[4]
  relative affinity: 418
[7]
  relative affinity: 216

## NTYTKHQIRQMEMKI-NH2 [CCNB1 275-289]
[2]
  relative affinity: 85
[5]
  relative affinity: 80
[3]
  relative affinity: 43
[29]
  relative affinity: 158
[27]
  relative affinity: 50
[6]
  relative affinity: 456
[7]
  relative affinity: 4

## SKYEEMYPPEIGDFA-NH2 [CCNB1 256-270]
[28]
  relative affinity: 894
[2]
  relative affinity: 153
[3]
  relative affinity: 61
[27]
  relative affinity: 603
[6]
  relative affinity: 456
[4]
  relative affinity: 3
[7]
  relative affinity: 1370

## KKLPKPLEKVPMLVP-NH2 [CCNB1 77-91]
[28]
  relative affinity: 212
[1]
  relative affinity: 474
[5]
  relative affinity: 75
[7]
  relative affinity: 1630

## LHFLRRASKIGEVDV-NH2 [CCNB1 303-317]
[8]
  relative affinity: 1330
[25]
  relative affinity: 1390
[9]
  relative affinity: 495
[10]
  relative affinity: 1
[11]
  relative affinity: 1
[26]
  relative affinity: 3
[12]
  relative affinity: 849
[13]
  relative affinity: 17
